Reference: publication PMC2034485

Experiments:
GST-SAP (Homo sapiens) = GST-SAP (Homo sapiens) (UniProt Q9NS91); assay: SPR
[1] = target: human Rad18 (Rad18 1–495) (human) (UniProt Q9NS91); assay: SEC-MALS

Chain of GST-SAP (Homo sapiens) (Q9NS91 whole entry): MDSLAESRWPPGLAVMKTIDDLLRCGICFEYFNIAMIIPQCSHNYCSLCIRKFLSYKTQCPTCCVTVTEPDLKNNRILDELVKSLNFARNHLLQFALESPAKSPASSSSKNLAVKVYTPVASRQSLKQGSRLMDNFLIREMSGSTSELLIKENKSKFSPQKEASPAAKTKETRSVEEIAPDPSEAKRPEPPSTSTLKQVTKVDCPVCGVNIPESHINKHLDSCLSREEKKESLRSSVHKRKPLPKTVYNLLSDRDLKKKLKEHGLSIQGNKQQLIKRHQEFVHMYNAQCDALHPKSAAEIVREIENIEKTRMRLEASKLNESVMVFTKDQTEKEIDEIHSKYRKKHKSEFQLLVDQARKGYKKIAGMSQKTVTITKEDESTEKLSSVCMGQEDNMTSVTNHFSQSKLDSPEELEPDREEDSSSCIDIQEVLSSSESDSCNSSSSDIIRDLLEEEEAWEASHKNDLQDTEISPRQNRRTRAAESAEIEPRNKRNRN
Chain of human Rad18 (Rad18 1–495) (Q9NS91 whole entry): as above

40-mer dsDNA
Kd (GST-SAP (Homo sapiens)): 5.6 µM

TTTTTTTTTTTTTTTTTTTTTTTTTTTTTTTTTTTTTTTT [40T]
Kd (GST-SAP (Homo sapiens)): 1.1 µM

human Rad18 (Rad18 1–495) (from UniProt Q9NS91 1-495) (natural protein)
stoichiometry N [1]: 2
